Results from paper PMC1257591, “In Vitro Inhibition of Human Hepatic and cDNA-Expressed Sulfotransferase Activity with 3-Hydroxybenzo[a]pyrene by Polychlorobiphenylols” (Environmental Health Perspectives, 2005).

Tested on: T1, Oc1ccc2ccc3c4ccccc4cc4ccc1c2c43
T1 construct: made in house; host or cells: Escherichia coli
Assay: Kinetics of 3-OH-BaP sulfonation by partially purified cDNA-expressed SULT1B1
Assay type: biochemical, human
Conditions: other: apparent, 3-OH-BaP as substrate
Excerpt: The expression of human SULT1A1*1, SULT1A3, SULT1B1, and SULT1E1 in Escherichia coli has been described previously ([Dajani et al. 1998]; [Wang et al. 1998]). We grew E. coli cells containing the respective sulfotransferase genes as described previously ([Falany et al. 1990], [1994]), and prepared 100,000g supernatant fractions for use in inhibition studies and for partial purification of the SULT enzymes. We purchased expressed SULT1A1*2 cytosolic extract from PanVera (Madison, WI) and used it as supplied.
The 100,000g supernatant fractions of SULT1A1*1, SULT1A3, SULT1B1, and SULT1E1 were partially purified by chromatographic methods ([Falany et al. 1990], [1994]). After the last step, a 3′-phosphoadenosine 5′-phosphate (PAP)-agarose affinity column, we dialyzed the fractions eluted with PAP with three changes of buffer to remove PAP before the assay of SULT activity with 3-OH-BaP as substrate. We analyzed active fractions by SDS-PAGE ([Laemmli 1970]) to assess the purity of each SULT enzyme. We stained the gels with Coomassie R-250 reagent and determined the percentage of protein present as each respective SULT enzyme by scanning densitometry.
We determined SULT activity with 3-OH-BaP as substrate by a fluorimetric assay of BaP-3-SO4 product formation, as described previously ([Wang et al. 2004]). […] Duplicate tubes were prepared for each incubation condition. We examined the kinetics of sulfonation in three liver cytosol fractions by systematically varying the concentration of 3-OH-BaP or PAPS. When the variable substrate was 3-OH-BaP, we used 12 concentrations in the range from 0.035 to 2.00 μM, and the concentration of PAPS was kept constant at 10 μM. […]
We determined the kinetic parameters for 3-OH-BaP sulfonation by partially purified preparations of the cDNA-expressed SULT isozymes under incubation conditions similar to those used for liver cytosol. […]
We calculated the enzyme kinetic parameters from studies with variable concentrations of 3-OH-BaP using nonlinear regression analysis and GraphPad 4.0 software (GraphPad Software, San Diego, CA). […]

SULT1B1 (Homo sapiens)
Km: 2.00 µM | Vmax: 0.0097 µmol/min/mg | Vmax/Km: 4900 µL/min/mg
